By EC50 is commonly meant the concentration that produces a half-maximal response.

The target of test [1] is NM15 (influenza A virus). As to the kind of experiment: ELISA on peptide, Ab 10 µg/ml. For orientation: An ELISA detects its analyte on a solid surface through an enzyme-linked reagent.
The target of test [2] is NM16 (influenza A virus). The test is described as follows: ELISA on peptide, Ab 10 µg/ml.
The target in test [3] is M2 peptide (influenza A virus, A/Hong Kong/1/68 (H3N2)). The test is described as follows: ELISA on peptide, Ab 10 µg/ml.
Test [4] concerns the target NM17 (influenza A virus). The test is described as follows: ELISA on peptide, Ab 10 µg/ml.
Test [5] addresses M16 (influenza A virus). The test is described as follows: ELISA on peptide, Ab 10 µg/ml.
Test [6] concerns the target M15 (influenza A virus). As to the kind of experiment: ELISA on peptide, Ab 10 µg/ml.
Test [7] addresses M2FG peptide conjugated with BSA (influenza A virus, A/X-31 (H3N2)). As to the kind of experiment: peptide-BSA ELISA (++ EC50<10^-9M; + 10^-9M<EC50<10^-8M). The settings on record: remark: other sources report otherwise.
For test [8], the target named is M2G peptide conjugated with BSA (influenza A virus, A/Puerto Rico/8/34 (H1N1)). Described as above.
Test [9] has as its target M2-BSA conjugate (influenza A virus, A/Hong Kong/1/68 (H3N2)). The description is as above.

B1: C40G1 (antibody, V domains shown)
VH: QLQLQESGPGLVKPSETLSLTCTVSGGSISSSFYYCGWIRQPPGKGLEWIGSIYYRGSTYYNPSLKSRVTISVDTSKNQFSLKLSSVTAADTAVYYCARRVTMVRGVKGDYFDYWGQGTLVTVSS
VL: DIQMTQSPSSLSASVGDRVTITCRASQGISSWLAWYQQKPEKVPKSLIYAASSLQSGVPSRFSGSGSGTDFTLTISSLQPEDFATYYCQQYNYYPLTFGGGTKVEIKR
Regarding B1, the ELISA(OD450) in test [1] was found to be 2.51 OD450; in [2] it was 2.37 OD450; in test [3] it was 2.56 OD450; in test [4] it was 2.41 OD450; in test [5], 2.64 OD450; in test [6], 2.73 OD450. The EC50 in [7], in [8] and in test [9] was < 1 nM each time.

The record behind these values is patent publication US20090162366A1.
